Earlier results on 2 substances are cited in publication PMC7261628.

For this data set, the target named is Cathepsin B propeptide (prosegment) (UniProt P07858). As to the kind of experiment: Enzyme inhibition kinetics.

Regarding Cathepsin B His110Ala mutant H110A, the Ki (commonly the equilibrium dissociation constant of an inhibitor or competing ligand from its target) (pH 4.0) is listed as 2 nM.
Consider Cathepsin B, mature enzyme (wild type), for which the Ki is listed as 82 nM (pH 4.0) and 3.7 nM (pH 6.0).
